Measured values published in paper PMC8444619.

How the values were obtained:
Test in all cases: cross-linking
[1] = target: HA-tagged GST V125-TAG (azF) (E. coli) (UniProt P0A9D2)
[2] = target: NS4B^HA (HA-tagged HCV NS4B, wild type, in NS3-5B-4B^HA) (hepatitis C virus)
[3] = target: NS4B^HA A180-TAG (azF) (hepatitis C virus)
[4] = target: NS4B^HA I96-TAG (azF) (hepatitis C virus)
[5] = target: NS4B^HA K162-TAG (azF) (hepatitis C virus)
[6] = target: NS4B^HA M80-TAG (azF) (hepatitis C virus)
[7] = target: NS5A^HA I15-TAG (azF) F36A/I37A/S38A/R112A/E148A (hepatitis C virus)
[8] = target: NS5A^HA W84-TAG (azF) (hepatitis C virus)
[9] = target: NS5A^HA W84-TAG (azF) D18A (hepatitis C virus)

Substance: HA-tagged GST V125-TAG (azF) (from UniProt P0A9D2 1-201) (enzyme)
- stoichiometry N [1]: 2

Substance: NS4B^HA (HA-tagged HCV NS4B, wild type, in NS3-5B-4B^HA) (natural protein)
- stoichiometry N [2]: 2

Substance: NS4B^HA A180-TAG (azF) (natural protein)
- stoichiometry N [3]: 2

Substance: NS4B^HA I96-TAG (azF) (natural protein)
- stoichiometry N [4]: 2

Substance: NS4B^HA K162-TAG (azF) (natural protein)
- stoichiometry N [5]: 2

Substance: NS4B^HA M80-TAG (azF) (natural protein)
- stoichiometry N [6]: 2

Substance: NS5A^HA I15-TAG (azF) F36A/I37A/S38A/R112A/E148A (natural protein)
- percent of the control level (% of the control level) [7]: 55

Substance: NS5A^HA W84-TAG (azF) (natural protein)
- stoichiometry N [8]: 2

Substance: NS5A^HA W84-TAG (azF) D18A (natural protein)
- percent of the control level (% of the control level) [9]: 66
